Measured values from IntAct's records for PubMed 24794231.

B1: Cyclin-Y (Homo sapiens), Q8ND76 (parent)
chain: MGNTTSCCVSSSPKLRRNAHSRLESYRPDTDLSREDTGCNLQHISDRENIDDLNMEFNPSDHPRASTIFLSKSQTDVREKRKSLFINHHPPGQIARKYSSCSTIFLDDSTVSQPNLKYTIKCVALAIYYHIKNRDPDGRMLLDIFDENLHPLSKSEVPPDYDKHNPEQKQIYRFVRTLFSAAQLTAECAIVTLVYLERLLTYAEIDICPANWKRIVLGAILLASKVWDDQAVWNVDYCQILKDITVEDMNELERQFLELLQFNINVPSSVYAKYYFDLRSLAEANNLSFPLEPLSRERAHKLEAISRLCEDKYKDLRRSARKRSASADNLTLPRWSPAIIS

Variants of: B1
Settings: with cul1_human CUL1, Q13616
cul1_human CUL1, Q13616, sequence (Q13616 whole entry): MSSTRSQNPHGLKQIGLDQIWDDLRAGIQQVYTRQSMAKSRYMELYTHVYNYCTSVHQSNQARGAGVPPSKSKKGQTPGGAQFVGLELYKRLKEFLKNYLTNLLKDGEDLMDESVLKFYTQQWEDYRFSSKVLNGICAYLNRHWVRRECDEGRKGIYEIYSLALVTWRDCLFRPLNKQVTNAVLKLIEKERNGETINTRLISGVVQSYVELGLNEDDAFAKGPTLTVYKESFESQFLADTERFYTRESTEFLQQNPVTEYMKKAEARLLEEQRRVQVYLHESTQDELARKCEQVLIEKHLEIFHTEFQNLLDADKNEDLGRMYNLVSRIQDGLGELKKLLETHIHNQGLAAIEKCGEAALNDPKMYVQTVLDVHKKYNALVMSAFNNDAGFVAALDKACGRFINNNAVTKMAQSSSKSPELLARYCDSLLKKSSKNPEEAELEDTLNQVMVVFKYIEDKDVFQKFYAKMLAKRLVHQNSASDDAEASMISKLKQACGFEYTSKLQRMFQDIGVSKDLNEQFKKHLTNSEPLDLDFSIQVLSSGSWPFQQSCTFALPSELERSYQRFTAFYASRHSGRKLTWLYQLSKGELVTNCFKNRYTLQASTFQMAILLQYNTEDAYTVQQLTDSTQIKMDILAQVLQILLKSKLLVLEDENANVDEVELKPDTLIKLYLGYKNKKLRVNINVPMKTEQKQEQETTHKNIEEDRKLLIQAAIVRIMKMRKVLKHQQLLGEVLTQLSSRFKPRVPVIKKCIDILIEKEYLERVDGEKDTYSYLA

| effect of a mutation on the interaction | Variant |
| --- | --- |
| decreasing interaction | S73A |

Variants of: B1
Settings: with cul1_human CUL1, Q13616
Remark: another data set of the same source

| effect of a mutation on the interaction | Variant |
| --- | --- |
| decreasing interaction | S71A |

Variants of: B1
Settings: with cul1_human CUL1, Q13616
Remark: another data set of the same source

| effect of a mutation on the interaction | Variant |
| --- | --- |
| disrupting interaction | S71A;S73A |
